According to patent US11613746B2, “Methods for developing virus protein specific capture agents, capture agents, and methods of using the capture agents” (priority 2019, dated 2023):
Read-outs that look alike come from different tables or passages of the source.

Target: T1, CHIKV E2 protein (Chikungunya virus, UniProt Q8JUX5)
T1 construct: incubated with varying concentrations of biotin conjugated CHIKV E2 protein
T1 sequence (Q8JUX5 326-748 limits assumed): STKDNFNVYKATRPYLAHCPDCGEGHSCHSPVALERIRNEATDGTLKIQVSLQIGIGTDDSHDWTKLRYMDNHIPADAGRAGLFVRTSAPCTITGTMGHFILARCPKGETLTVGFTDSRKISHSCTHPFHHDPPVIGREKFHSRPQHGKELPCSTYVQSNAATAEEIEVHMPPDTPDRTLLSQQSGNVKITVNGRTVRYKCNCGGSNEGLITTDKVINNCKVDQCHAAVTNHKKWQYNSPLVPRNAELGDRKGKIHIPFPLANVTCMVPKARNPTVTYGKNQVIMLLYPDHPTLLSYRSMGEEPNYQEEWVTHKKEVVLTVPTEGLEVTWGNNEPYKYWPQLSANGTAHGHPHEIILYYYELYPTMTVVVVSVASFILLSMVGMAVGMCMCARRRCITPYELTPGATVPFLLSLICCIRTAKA
Experiment: LUMINEX binding assay (sandwich-type) of bead-attached capture agents with biotin conjugated CHIKV E2 protein
Conditions: for EC50: FIG. 9
Description: Referring to FIG. 4, the binding performance of each capture agent is determined using a LUMINEX® binding assay, which is essentially the same as a sandwich-type ELISA, where the peptides are attached to a bead as a one-arm polyethylene glycol (PEG) or three-arm PEG construct. By allowing these beads to interact with varying concentrations of the CHIKV E2 protein, one can determine and compare the binding performance of each capture agent construct. A smaller value of the variable on the horizontal axis at the inflection point of a given plot for a corresponding capture agent indicates stronger binding for the corresponding capture agent with respect to the target protein or target molecule.
Referring to FIG. 4, the assay for an illustrative example was performed on a LUMINEX® 200 instrument. LUMINEX®'s xMAP technology drives multiplexed assay capabilities by combining fluidics, optics, and digital signal processing with microsphere technology. The LUMINEX® 200 is capable of testing up to 100 analytes simultaneously from a single sample and is the leading multiplex immunoassay technology. In general, the color-coded microspheres are the substrate on which the solution phase assays are performed, where a specific microsphere color corresponds to an individual receptor attached to the microsphere surface.
In one illustrative example, 6 separate microsphere regions were first functionalized with a single arm polyethlyglycine (PEG) azide molecule. Each microsphere region was then reacted with an individual, alkyne-functionalized cyclic peptide (with the sequence WIYYI, IYLRY, YWHWS, FWQIL), or an equal combination of all sequences (noted as “polyclonal”). As a control, polyclonal Anti-E2 antibody was attached to a bead region for performance comparison against the peptide constructs. In an analogous experiment, the exact same process was repeated, except the single arm PEG azide molecule was switched to a 3-arm PEG azide molecule.
The details of some of the synthesis and experimental techniques useful in the embodiments herein can be found in United States Patent Application Publication No. US 2017/0349754 A1, by Matthew B. Coppock, published Dec. 7, 2017, M. B. Coppock et al., “A novel discovery, maturation, and assay integration approach for the development of ruggedized multi-valent capture receptors exemplified against the chikungunya virus E2 protein,” Sensing and Bio-Sensing Research 22 (2019) 100248, and M. B. Coppock, D. N. Stratis-Cullum, “A universal method for the functionalization of dyed magnetic microspheres with peptides,” Methods 158 (2019) 12-16, all of which, including their supplemental parts and appendices, are incorporated by reference herein in their entirety. […]

With “WIYYI (chains of the parent or of the whole protein)” the EC50 (heated at 90° C. for 1 hr before assay, read-out: EC50 (binding activity for CHIKV E2) after heating) was 0.245 ± 0.005 nM and the EC50 (unheated control, LUMINEX assay, read-out: EC50 (binding activity for CHIKV E2) before heating) was 0.232 ± 0.006 nM.
In the case of WIYYI, the “binding activity remaining after heating” value (heated at 90° C. for 1 hr, result in words) is reported as “no loss in binding activity” and the “binding performance compared to commercially available antibody raised against E2” value (multi-arm constructs, result in words) is reported as “outperform the antibody”.
